# Test results from PMC12058244, “Design and Synthesis of ^68Ga‐Labeled Peptide‐Based Heterodimers for Dual Targeting of NTS1 and GRPR” (Chemmedchem, 2025).
# Where two headings read alike, the source gives them in different places.
# Tests used:
# [1] = Octanol/water partition coefficient (LogD7.4); assay type: physicochemical
# Method: Determination of the Octanol/Water Partition Coefficient (LogD7.4) LogD determination was performed in triplicate and repeated over three radiolabelings. Approximately 3.7 MBq of the ^68Ga‐radiolabeled peptide were added to qsp 500 μL of PBS (Gibco, France, pH=7.4) and 500 μL of octanol (Sigma Aldrich, USA) in microcentrifuge tubes. Tubes were shaken then vortexed and centrifuged at room temperature (3 min, 4000 rpm). 100 μL of each layer were sampled in separate test tubes and measured in a gamma‐counter (Wizard2, PerkinElmer, USA). LogD7.4 value was obtained by calculating the log10 of the ratio between the organic phase activity (cpm) and the aqueous phase activity (cpm). Both activities were decay‐corrected.
# NTS1 = settings: cited from earlier work
# Method: The design of novel heterodimers was based on SAR studies. […] For this reason, the NT analogue JMV 438 ([Lys^8–Lys^9]NT[8–13]) was widely studied and validated as a positive control (NTS1 K i=4.0 nM, Chart 1).[19] Recently, in the attempt to improve the binding affinity towards NTS1, lipophilic residues were incorporated in the NT[8–13] sequence.[20] Among the new analogues, JMV 2007 (Chart 1), in which a trimethylsilylala ...
molecule,measurement,setting,value
"CC[C@H](C)[C@H](NC(=O)[C@H](Cc1ccc(O)cc1)NC(=O)[C@@H]1CCCN1C(=O)[C@H](CCCCN)NC(=O)[C@H](CCCCN)NC(=O)CCNC(=O)[C@H](CCC(=O)NCCC(=O)NCCC(=O)N[C@H](Cc1ccccc1)C(=O)N[C@@H](CCC(N)=O)C(=O)N[C@@H](Cc1c[nH]c2ccccc12)C(=O)N[C@@H](C)C(=O)N[C@H](C(=O)NCC(=O)N[C@@H](Cc1c[nH]cn1)C(=O)N[C@@H](CC(C)C)[C@@H](O)CC(=O)N[C@@H](CC(C)C)C(N)=O)C(C)C)NC(=O)CCNC(=O)CN1CCN(CC(=O)O)CCN(CC(=O)O)CCN(CC(=O)O)CC1)C(=O)N[C@@H](CC(C)C)C(=O)O [[^68Ga]Ga‐JMV 7266, metal not drawn]",logD,[1]; pH 7.4,-2.62 ± 0.13
[Lys^8–Lys^9]NT[8–13] [JMV 438],Ki,NTS1,4 nM
"CC[C@H](C)[C@H](NC(=O)[C@H](Cc1ccc(O)cc1)NC(=O)[C@@H]1CCCN1C(=O)[C@H](CCCCN)NC(=O)[C@H](CCCCN)NC(=O)CCNC(=O)CCNC(=O)[C@H](CC(C)C)NC(=O)C[C@H](O)[C@H](CC(C)C)NC(=O)[C@H](Cc1c[nH]cn1)NC(=O)CNC(=O)[C@@H](NC(=O)[C@H](C)NC(=O)[C@H](Cc1c[nH]c2ccccc12)NC(=O)[C@H](CCC(N)=O)NC(=O)[C@@H](Cc1ccccc1)NC(=O)CCNC(=O)CCNC(=O)CN1CCN(CC(=O)O)CCN(CC(=O)O)CCN(CC(=O)O)CC1)C(C)C)C(=O)N[C@@H](C[Si](C)(C)C)C(=O)O [[^68Ga]Ga‐JMV 7253, metal not drawn]",logD,"[1]; shake-flask octanol/PBS (Gibco) pH 7.4, 500 μL each, ~3.7 MBq 68Ga-peptide, room temperature, centrifuged 3 min 4000 rpm, gamma-counter, triplicate repeated over three radiolabelings, mean±SD, read-out: LogD7.4",-2.46 ± 0.07
"CC[C@H](C)[C@H](NC(=O)[C@H](Cc1ccc(O)cc1)NC(=O)[C@@H]1CCCN1C(=O)[C@H](CCCCN)NC(=O)[C@H](CCCCN)NC(=O)CCNC(=O)CCNC(=O)[C@H](CC(C)C)NC(=O)C[C@H](O)[C@H](CC(C)C)NC(=O)[C@H](Cc1c[nH]cn1)NC(=O)CNC(=O)[C@@H](NC(=O)[C@H](C)NC(=O)[C@H](Cc1c[nH]c2ccccc12)NC(=O)[C@H](CCC(N)=O)NC(=O)[C@@H](Cc1ccccc1)NC(=O)CCNC(=O)CCNC(=O)CN1CCN(CC(=O)O)CCN(CC(=O)O)CCN(CC(=O)O)CC1)C(C)C)C(=O)N[C@@H](CC(C)C)C(=O)O [[^68Ga]Ga‐JMV 7110, metal not drawn]",logD,[1]; pH 7.4,-2.74 ± 0.21
"[Lys^8‐Lys^9‐TMSAla^13]NT[8–13] [JMV 2007, NT[8-13] analogue with TMSAla at position 13]",IC50,NTS1,0.02 nM
